Columns and labels:
[1] = biological target: T1, H-NS-His in cell lysate (Escherichia coli K12 MG1655?) (UniProt P0ACF8); test: EMSA + anti-His Western; conditions: 0.01 mM EDTA, 0.01 mM DTT, 3.3 mM imidazole, 40 min at 30°C
T1 sequence: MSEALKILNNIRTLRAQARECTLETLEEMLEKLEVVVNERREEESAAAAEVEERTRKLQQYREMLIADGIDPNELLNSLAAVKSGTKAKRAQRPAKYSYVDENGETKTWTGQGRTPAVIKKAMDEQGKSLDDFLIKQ

[2] = biological target: T2, H-NS (purified recombinant) (Escherichia coli K12 MG1655?) (UniProt P0ACF8); test: EMSA; conditions: 1 mM Mg2+, EMSA: 0.5 pmol DNA in 20 µl 5 mM Tris-HCl pH 8.0, 1 mM MgCl2, 50 mM NaCl, 0.01 mM EDTA, 0.01 mM DTT, 3.3 mM imidazole, 40 min at 30°C, 5% PAAG, lysate series …
T2 sequence: T1 sequence

[3] = n=6, EMSA: 0.5 pmol DNA in 20 µl 5 mM Tris-HCl pH 8.0, 1 mM MgCl2, 50 mM NaCl, 5% …, lysate series wi

Sequence	binding signal (% of initial fragment) [1, 3]	binding signal (% of initial fragment) ([2]; n=6)	also measured
AGATCTGCAAGTAAAAATGATACTCTTTTTATATTAAATTCAAACGGTTGACATATATATAGCAAGAGGTTTCAGGTGCGTTGTAGCGAGTTTATGTTTATAAAAAGCATAGTAAGCGTTGAAAAATGTAACTTTGAAATAAGTTAGAATAAAAAACAACATACATATATTAATTTAATCCTAAATGAAATTTATTAAAATCTGCAAACTATAATTTTGTGTATAAAAATATAAATGCACATCATCCTGATTATGATTGTGTATTTAATTGGTTGTTATTTGACTACTATCAACTTGTTTTAATTTTATGATAGGTGCAAGGTGGATTATGTTTGATCCGTAGTTTTCATCTGTCAATCATTTGATTTAATTATAAACAGGAGAGTTATCTCGTTCAAAAAAATTCATTGTTTATTGTAAGCGACAAATCTAGA (double strand)	–	–	binding signal (% of initial fragment) ([1]; p=0.15, n=6, EMSA: 0.5 pmol DNA in 20 µl 5 mM Tris-HCl pH 8.0, 1 mM MgCl2, 50 mM NaCl, 5% PAAG, lysate series …): 117; binding signal (% of initial fragment) ([2]; p=0.78, n=6): 110
AGATCTTCCTCGGAGAAACACTGACACCCATACAGCTACTGGCGCTCGGCGCTATCATCGCCGCTTCAATGGGGTCTACGCAGACAGTACGCAAAGAGAGCAAAATAAAAGAATTAGACATTAATTAAATTTACATTTCTGCATGGTTATGCATAACCTTGCAGAATTTCTCGCTACTTTTCCCCTACACCGTCTTTATATATCGAATTATGCAAAAGCATATTTATTCCGAAAATTCCTGGCGAGCAGATAAATAAGAATTGTTCTTATCAATATATCTAACTCATTGAATCTTTATTAGTTGTGTTTTTCACGCTTGTTACCACTATTAGTGTGATAGGAACAGCCAGAATAGCGGAACACATAGCCGGTGCTATACATAGTCTCGTTAATTACTGGGACATAACATCTAGA (double strand) [dps promoter, down-regulated mutant (negative selection)]	113	–	binding signal (% of initial fragment) ([2]; n=6, not significant): 117
AGATCTGCAAGTAAAAATGATACTCTTTATATTTAAATTCAAACGGTTGACATATATATAGCACGAGGTTTCATGTGCGTAGTAGTGAGTTTATGTTATTAAACAGCTTAGTATGCGTTGGAAAGTGAAGCTTTGTAATAAGTTAGAATAAGACGCGACATACATATAACAATTTAATCTTAAATGTAGTCTATTAGCATTTGCAAACAAACAATTTGCGTATATACTATAAATGCACATCATCCTGATTGTGATTGTGTATTTAACTGGTTCTTATATGACTACTACCAACTAGGTTTAGTCTTATGATAGGTGCAGGATGGATTATGTTTACTCCGTAGTTTCCATCTGTCTATCATTAGATTTAATTATGAACAGGAGAGTTATCCTGTTCAAAAAAAATTCATTGTTTATTGTAAGCGACAAATCTAGA (double strand) [appY promoter, activated mutant (positive selection cycle 9)]	97.2	102	–
AGATCTTCCTCGGAGAAACACTGACACCCATACAGCTACTGGCGCTCGGCGCTATCATCGCCACTTCAATGGGGTCTACGCTGACAGTACGCAAAGAGAGCAAAATAAAAGAATTAGACATTAATTAAATTTACATTTCTGCATGGTTATGCATAACCATGCAGAATTTCTCGCTACTTTTCCTCTACACCGTCTTTATATATCGAATTATGCAAAAGCATATTTATTCCGAAAATTCCTGGCGAGCAGATAAATAAGAATTGTTCTTATCAATATATCTAACTCATTGAATCTTTATTAGTTTTGTTTTTCACGCTTGTTACCACTATTAGTGTGATAGGAACAGCCAGAATTGCGGAACACATAGCCGGTGCTATACTTAGTCTCGTTAATTACTGGGACATAACATCTAGA (double strand) [dps promoter, up-regulated mutant (positive selection)]	–	100	binding signal (% of initial fragment) ([1]; p=0.537, n=6, EMSA: 0.5 pmol DNA in 20 µl 5 mM Tris-HCl pH 8.0, 1 mM MgCl2, 50 mM NaCl, 5% PAAG, lysate series …): 129
